Paper PMC11381367
Each block holds one substance with its values, some of them ahead of it.

Assays:
[1] = system: RCC1; assay: SPR; conditions: EMSA: 20 mM HEPES pH 7.6, 50 mM NaCl, 5% sucrose, 1 mM DTT, 2.5 mM MgCl2, 0.1 mg/ml BSA, on ice 1 h, SPR: 10 mM HEPES pH 7.4, 150 mM NaCl, 3 mM EDTA, 0.05% …
[2] = target: H2AK119ub nucleosome (dichloroacetone-linked ubiquitin on histone H2A-K119, Xenopus laevis histones) (Xenopus laevis | not stated) (UniProt P06897); assay: SPR; Biacore 8K; 5' biotinylated 185 bp nucleosome (about 200 RU) captured on streptavidin on a CM5 chip; RCC1 as analyte in 2-fold dilutions; HBS-EP+ (10 mM HEPES pH 7.4, 150 mM NaCl, 3 mM EDTA, 0.05% Tween-20); 1:1 steady-state affinity fit, two replicates
[3] = target: unmodified nucleosome (Xenopus laevis histones, Widom 601 DNA) (Xenopus laevis); assay: as above

Sequence of RCC1 (P18754 whole entry): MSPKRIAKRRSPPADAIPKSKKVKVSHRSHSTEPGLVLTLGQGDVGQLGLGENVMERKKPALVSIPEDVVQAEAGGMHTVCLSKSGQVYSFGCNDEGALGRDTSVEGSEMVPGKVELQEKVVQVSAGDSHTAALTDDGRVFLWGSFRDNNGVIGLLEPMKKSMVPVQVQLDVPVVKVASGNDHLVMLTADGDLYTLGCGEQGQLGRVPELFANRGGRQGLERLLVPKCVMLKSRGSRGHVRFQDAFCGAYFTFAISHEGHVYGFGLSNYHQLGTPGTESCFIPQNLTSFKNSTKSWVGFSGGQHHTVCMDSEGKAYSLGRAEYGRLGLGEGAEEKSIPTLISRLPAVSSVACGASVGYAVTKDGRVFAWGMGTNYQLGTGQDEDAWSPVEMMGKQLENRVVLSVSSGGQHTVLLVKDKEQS

Substance: H2AK119ub nucleosome, 185 bp 601 (SPR)
Kd ([1]; histone H2AK119ub): 540 nM

Substance: H2BK120ub nucleosome, 185 bp 601 (SPR)
Kd ([1]; histone H2BK120ub): > 10000 nM

Kd [2]: 540 nM
Kd [3]: 730 nM
Substance: RCC1 (from UniProt P18754 1-421) (natural protein)

Substance: unmodified nucleosome, 185 bp 601 (SPR)
Kd ([1]; unmodified histones): 730 nM
